# Where no end group is shown, it is not given here. [ ]: non-standard residue; d: D form. pS = N[C@@H](COP(=O)(O)O)C(=O)O
# Experiments:
# recombinant human Hsc70 [1] = target: T1, recombinant human Hsc70 (Homo sapiens, UniProt P11142); assay: Hsc70-peptide complex formation by size exclusion chromatography (SEC); format: binding; details: for Percentage of Hsc70 loaded with peptide: peptide:Hsc70 4:1 molar excess, PBS 37° C. 1 hour
# T1 construct: purchased Biomay AG
# Source text: Hsc70-peptide complex formation was examined in vitro using size exclusion chromatography (SEC). Hsc70 resolves in two main peaks on a size exclusion column, with one peak corresponding to its monomeric form and the other peak to an oligomeric form (FIG. 14). Hsc70 undergoes a conformational change upon binding peptide (Zhuravleva and Gierasch, P.N.A.S. 112[22]:E2865-73 [2015]), resulting in the appearance of a new peak on the SEC chromatogram that corresponds to the peptide-bound form (FIG. 15). By measuring the surface area of each of the peaks corresponding to the forms of Hsc70 on a chromatogram, the percentage of Hsc70 complexed with a peptide can be determined. The effect of the molar ratio of Hsc70 to peptide on Hsc70-peptide complex formation was determined by combining Hsc70 and a test peptide at Hsc70/peptide molar ratios of 1:4, 1:10, 1:20, and 1:50, and then resolving the resulting mixtures by SEC to determine the extent of complex formation. The peptide used in these experiments was the immunogenic peptide B16-M27 (“M27”), containing a B16-F10 melanoma-specific mutation, as described in Kreiter et al., Nature 520(7549):692-6 (2015) (also described in Examples 9-11). The effect on complex formation of appending a high affinity Hsc70-binding peptide sequence to a chicken ovalbumin peptide having the amino acid sequence SIINFEKL (SEQ ID NO:448), that is highly immunogenic in mice (Zehn et al, Nature 458:211-214 [12 Mar., 2009]) was also tested. The high affinity Hsc70 binding sequence, NLLRLTG (SEQ ID NO:439) was appended to either the C- or N-terminus of the ovalbumin peptide, and was linked to the ovalbumin peptide by a linker having the sequence FFRK (SEQ ID NO:447), as disclosed in U.S. Pat. No. 7,309,491.
# Standard size exclusion chromatography was carried out using 7 μM of recombinant human Hsc70 (Genbank Accession No. P11142.1) (Biomay AG) in a reaction buffer containing 20 mM HEPES and 200 mM KCL in a final volume of 50 μl. Reactions were incubated at 37° C. for 1 or 2 hours and centrifuged 2 min at 13000 RPM. Reaction products (10 μg) were resolved on a TSKgel SuperSW3000, 4 μm particle size, 25 nm pore size gel filtration chromatography column (Tosoh Bioscience). For reactions containing peptide, peptide was included in the reaction mixtures at Hsc70:peptide molar ratios of 1:4, 1:10, 1:20, and 1:50. The percentage of Hsc70 complexed with peptide in each reaction mixture was calculated by measuring the surface area of the appropriate peak.
# The peptides listed above were individually incubated with Hsc70 in PBS at 37° C. for 1 hour to form non-covalent Hsc70-peptide complexes. For M27 and M30, the peptides were added to Hsc70 at a 20:1 molar excess (peptide:Hsc70) while for M27-Jav and M30-Jav, the peptides were added at a 4:1 molar excess. After incubation, the mixtures were diluted 10 times in PBS at 4° C. and concentrated using a 30 kDa MW cut off Millipore® Amicon® centrifugal filter to separate Hsc70-peptide complexes from free, uncomplexed peptide. The retained complexes 5 Hsc70-M27 and Hsc70-M30 were pooled and subsequently analyzed by size exclusion chromatography (SEC) to quantify the proportion of Hsc70 molecules loaded with peptide. […] The same pooling, filtration and SEC analysis steps were followed for the Hsc70-M27-Jay and Hsc70-M30-Jav complexes with the observation that 73% of the Hsc70 molecules were loaded with the peptides.
# Four peptides (Table 9) containing a phosphorylated serine residue were synthesized to 95% purity (GenScript, Cambridge, Mass.). The peptides comprise HLA-A*02:01 binding epitopes of the CDC25 or IRS-2 antigen modified at either their C-termini or N-termini with the addition of a linker sequence FFRK (SEQ ID NO:447) and a high affinity HSP binding peptide sequence NLLRLTG (SEQ ID NO: 439). These peptides were individually incubated with Hsc70 in PBS at 37° C. for 1 hour at a 4:1 molar excess (peptide:Hsc70) to form non-covalent Hsc70-peptide complexes. […]
# recombinant human Hsc70 [2] = target: T1, recombinant human Hsc70; assay: as above; format: binding
# [3] = Hsc70:peptide molar ratio 1:10, 37° C.
# T1 sequence (P11142 whole entry): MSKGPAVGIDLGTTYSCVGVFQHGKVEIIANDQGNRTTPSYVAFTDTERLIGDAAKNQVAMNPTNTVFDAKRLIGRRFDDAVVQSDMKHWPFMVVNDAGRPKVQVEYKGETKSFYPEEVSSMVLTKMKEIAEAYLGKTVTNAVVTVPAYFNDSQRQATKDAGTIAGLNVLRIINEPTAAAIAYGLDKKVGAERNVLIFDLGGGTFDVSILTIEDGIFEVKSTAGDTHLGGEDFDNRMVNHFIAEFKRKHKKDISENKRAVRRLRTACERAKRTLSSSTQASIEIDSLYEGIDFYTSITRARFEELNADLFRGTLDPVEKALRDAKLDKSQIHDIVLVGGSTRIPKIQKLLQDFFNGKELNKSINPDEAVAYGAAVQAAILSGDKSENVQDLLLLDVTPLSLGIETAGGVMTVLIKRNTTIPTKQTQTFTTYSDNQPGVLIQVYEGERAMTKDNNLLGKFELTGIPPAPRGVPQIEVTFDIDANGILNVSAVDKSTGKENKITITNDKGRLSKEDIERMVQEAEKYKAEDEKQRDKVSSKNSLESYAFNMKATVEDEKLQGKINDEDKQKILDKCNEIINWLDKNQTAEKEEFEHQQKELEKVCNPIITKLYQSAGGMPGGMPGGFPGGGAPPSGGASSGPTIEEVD
Substance,Percentage of Hsc70 loaded with peptide (recombinant human Hsc70 [1]),percentage of Hsc70 complexed with peptide (recombinant human Hsc70 [1]; [3]),other results
RVA{pSer}PTSGVFFRKNLLRLTG (RVA[pS]PTSGVFFRKNLLRLTG) [SEQ ID NO 476],75%,,
REGVELCPGNKYEMRRHGTTHSLVIHD (M27),,approximately 40%,"change in extent of complex formation with incubation time (recombinant human Hsc70 [2]; incubation time increased from 2 to 3 hours at 37° C.): only a minor increase; percentage of Hsc70 bound to peptide (recombinant human Hsc70 [1]; Hsc70:peptide molar ratio 1:4, 37° C.): 20%; percentage of Hsc70 complexed with peptide (recombinant human Hsc70 [1]; Hsc70:peptide molar ratio 1:20, 37° C.): approximately 50%; percentage of Hsc70 complexed with peptide (recombinant human Hsc70 [1]; Hsc70:peptide molar ratio 1:50, 37° C.): approximately 65%"
NLLRLTGFFRKRVA{pSer}PTSGV (NLLRLTGFFRKRVA[pS]PTSGV) [SEQ ID NO 475],34%,,
"SIINFEKLFFRKNLLRLTG [SEQ ID NO:449, reference compound]",,over 90%,"extent of complex formation, NLLRLTG at C-terminus compared to N-terminus (recombinant human Hsc70 [2]; Hsc70:peptide molar ratio 1:2, same result at 1:5): significantly greater"
GLLG{pSer}PVRAFFRKNLLRLTG (GLLG[pS]PVRAFFRKNLLRLTG) [SEQ ID NO 474],74%,,
NLLRLTGFFRKGLLG{pSer}PVRA (NLLRLTGFFRKGLLG[pS]PVRA) [SEQ ID NO 473],41%,,
